Legend:
[1] = biological target: T1, human transglutaminase type 2 (TG2) (human, UniProt P21980 1-687); assay: cell-based or functional assay
T1 sequence: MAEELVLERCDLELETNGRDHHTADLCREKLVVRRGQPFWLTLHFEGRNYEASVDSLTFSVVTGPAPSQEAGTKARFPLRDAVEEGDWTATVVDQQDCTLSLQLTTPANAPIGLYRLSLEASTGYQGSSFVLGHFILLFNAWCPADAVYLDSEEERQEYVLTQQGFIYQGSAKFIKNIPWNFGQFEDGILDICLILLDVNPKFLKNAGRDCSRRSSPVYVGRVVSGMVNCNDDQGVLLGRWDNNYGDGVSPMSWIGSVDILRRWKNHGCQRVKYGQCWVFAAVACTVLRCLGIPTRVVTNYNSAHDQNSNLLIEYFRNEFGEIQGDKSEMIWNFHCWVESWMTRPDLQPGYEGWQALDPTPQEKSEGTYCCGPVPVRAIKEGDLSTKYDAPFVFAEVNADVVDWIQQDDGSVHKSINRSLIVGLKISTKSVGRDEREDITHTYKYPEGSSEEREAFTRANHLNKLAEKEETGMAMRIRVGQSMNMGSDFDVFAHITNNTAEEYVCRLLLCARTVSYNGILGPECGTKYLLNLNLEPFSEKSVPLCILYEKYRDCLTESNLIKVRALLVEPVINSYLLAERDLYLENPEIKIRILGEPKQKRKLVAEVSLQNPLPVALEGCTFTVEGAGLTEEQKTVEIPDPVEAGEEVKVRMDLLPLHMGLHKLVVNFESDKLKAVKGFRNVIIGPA

mouse TG2 = biological target: T2, mouse TG2 (mouse, UniProt P21981 1-686); assay: western blot and ELISA
T2 sequence: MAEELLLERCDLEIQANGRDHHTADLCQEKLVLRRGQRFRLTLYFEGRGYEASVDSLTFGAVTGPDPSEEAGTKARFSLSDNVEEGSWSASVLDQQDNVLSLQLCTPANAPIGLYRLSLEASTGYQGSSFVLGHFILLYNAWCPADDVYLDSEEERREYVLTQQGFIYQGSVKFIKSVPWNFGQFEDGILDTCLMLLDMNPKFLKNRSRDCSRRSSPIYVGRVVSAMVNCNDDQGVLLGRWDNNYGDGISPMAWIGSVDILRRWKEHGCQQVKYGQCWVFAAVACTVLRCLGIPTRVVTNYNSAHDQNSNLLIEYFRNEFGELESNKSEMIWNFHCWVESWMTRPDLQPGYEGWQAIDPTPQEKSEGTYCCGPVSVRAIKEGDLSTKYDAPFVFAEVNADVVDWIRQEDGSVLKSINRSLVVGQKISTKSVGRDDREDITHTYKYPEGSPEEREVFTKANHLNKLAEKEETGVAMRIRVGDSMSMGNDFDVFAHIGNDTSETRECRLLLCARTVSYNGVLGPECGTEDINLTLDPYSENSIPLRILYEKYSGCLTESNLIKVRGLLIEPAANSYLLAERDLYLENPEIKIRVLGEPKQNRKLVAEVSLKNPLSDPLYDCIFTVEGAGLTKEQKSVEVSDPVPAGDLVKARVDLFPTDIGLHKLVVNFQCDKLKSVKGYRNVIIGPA

rat TG2 = biological target: T3, rat TG2 (rat, UniProt Q9WVJ6 1-686); assay: western blot and ELISA
T3 sequence: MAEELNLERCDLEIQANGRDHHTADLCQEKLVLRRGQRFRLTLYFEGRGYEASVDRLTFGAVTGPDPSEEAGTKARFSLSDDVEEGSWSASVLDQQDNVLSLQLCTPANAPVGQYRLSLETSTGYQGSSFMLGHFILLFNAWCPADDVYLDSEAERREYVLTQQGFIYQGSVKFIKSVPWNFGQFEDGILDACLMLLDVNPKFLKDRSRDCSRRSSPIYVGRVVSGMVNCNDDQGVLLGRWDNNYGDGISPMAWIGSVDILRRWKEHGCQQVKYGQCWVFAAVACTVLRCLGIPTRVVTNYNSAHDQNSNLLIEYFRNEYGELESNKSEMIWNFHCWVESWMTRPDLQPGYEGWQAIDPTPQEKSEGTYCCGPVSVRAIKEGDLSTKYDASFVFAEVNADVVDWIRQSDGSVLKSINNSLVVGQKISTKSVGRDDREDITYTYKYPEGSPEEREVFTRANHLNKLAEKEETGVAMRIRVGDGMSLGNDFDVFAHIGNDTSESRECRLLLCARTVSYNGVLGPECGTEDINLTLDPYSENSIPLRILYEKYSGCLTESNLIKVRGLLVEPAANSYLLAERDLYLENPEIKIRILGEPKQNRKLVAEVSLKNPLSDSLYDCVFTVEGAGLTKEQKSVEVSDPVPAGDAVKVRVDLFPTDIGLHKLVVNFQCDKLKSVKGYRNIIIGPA

IC50, 3H-putrescine incorporation TG activity assay [1]: 1.1e-05 mg/ml of IgG (amount required to inhibit 1 ng of TG2)
binding result (mouse TG2): binds
binding result (rat TG2): binds
B1: AB1 murine monoclonal anti-TG2 antibody (antibody, V domains shown)
VH: EVQLVESGGGLVKPGGSLKLSCAASGFTLSSSAMSWVRQTPDRRLEWVATISVGGGKTYYPDSVKGRFTISRDNAKNTLYLQMNSLRSEDTAMYYCAKLISLYWGQGTTLTVSS
VL: DIKMTQSPSSMYASLGERVTITCKASQDINSYLTWFQQKPGKSPKTLIYRTNRLFDGVPSRFSGSGSGQDFFLTISSLEYEDMGIYYCLQYDDFPYTFGGGTKLEIK
notes: they differ only in the first residues; also called AB1 IgG; mAB003

— patent US20180355060A1 (published 2018)
